# Where two headings read alike, the source gives them in different places.
# Columns and labels:
# [1] = system: Male Zucker Diabetic Fatty (ZDF) rats; assay: Anti-obesity test in ZDF rats; type: in vivo, rat; conditions: for cumulative food intake relative to 0.9% NaCl group / cumulative weight gain compared to 0.9% NaCl: 25 days; for cumulative weight gain compared to 0.9% NaCl: four weekly SC injections, 100 and 200 nmol/kg; for day on which decrease in cumulative food intake reached statistical significance: relative to 0.9% NaCl group, weekly SC injections
# Method: Control animal were injected with 0.9% NaCl. Animals were weighed twice a week and food intake was measured daily for the first week and four times a week thereafter for a total of 25 days. Statistical analysis was performed using two-way Analysis of Variance (ANOVA) followed by the Tukey's pair-wise comparison test. Significance was considered when P value was less than 0.05.
# male Sprague-Dawley rats [2] = conditions: rat, in vivo
# Text: One model for studying gastrointestinal malaise in response to administration of a test agent is the conditioned taste aversion test (Peeters and Broekkamp, 1994, J. Steroid Biochem. Mol. Biol., 49:417-427). Conditioned taste aversion is a form of associative learning in which animals learn to avoid flavors of substances where initial ingestion of the substance was followed by illness. In conditioned taste aversion, animals learn to associate a flavor, or conditioned stimulus, with the aversive effects of an administered agent, or unconditioned stimulus. Following conditioned stimulus—unconditioned stimulus pairings, animals reduce their consumption of the conditioned stimulus, and/or show a preference for other tastes when later presented with the conditioned flavor. […] The conditioned stimulus was 0.1% saccharin flavored water with high palatability. […]
# Following injection, all groups were given food ad libitum and 2 bottles of water. At 72 h and 96 h post dose, a choice of tap water or 0.1% saccharin solution (conditioned stimulus) was offered, and intake of both solutions was measured for 12 hours. Mean saccharin preference ratios, representing the percentage of saccharin solution consumed relative to total liquid intake, were determined for each group (FIGS. 1 and 2).
# male Sprague-Dawley rats [3] = conditions: rat, in vivo; remark: listed apart in the source
# Method: (§1) Ninety male Sprague-Dawley rats of 6 weeks in age were housed individually and given food and water ad libitum. Habituation to kaolin was achieved by offering fresh blocks of kaolin daily for 8 days before dosing. Rats were then assigned to nine treatment groups (n=10/group).
# (§2) Immediately following injection, animals were offered a fresh kaolin block in addition to food and water. Kaolin intake was measured every hour for a four-hour period immediately after dosing, and also at 6, 8, and 24 hours post dose (FIG. 3).
# [4] = system: female diabetic db/db mice; type: in vivo, mouse; conditions: for abnormal clinical signs: mouse, in vivo
# Method: Blood glycemia was recorded at the following time points: pre-dose, 1, 3, 6, 24, 30, 48, 52, 74 and 101 hours post dose using a handheld glucometer (Accu-check compact, Roche Diagnostics, Canada). Food and water intake were recorded at the following timepoints: 0 to 6, 6 to 24, 24 to 30, 30 to 48, 48 to 72 and 72 to 101 hours post dose.
# monkeys = assay: Monkey toxicity study (7-day and 28-day); type: in vivo
# Method: Recombinant human albumin was also dosed at 9 mg/kg as an additional control.
# male Sprague-Dawley rats [5] = assay: Kaolin intake (pica) test; conditions: for kaolin intake after dosing relative to 0.9% NaCl: LiCl IP, exendin-4 and CJC-1134-PC 0.5 nmol/kg SC
# Method: as §1, §2
# [6] = system: patients with stable Type 2 diabetes; assay: Phase I/II single escalating dose clinical study of CJC-1134-PC; type: in vivo, human; conditions: for Nausea (%) / Vomiting (%): N=6
# Method: Patients enrolled in the trial had HbA1c levels between 6.5% and 11%. Patients previously treated with oral anti-diabetic agents discontinued therapy at least 1 week prior to dosing. […] Injections were performed with a 29 gauge needle. Each cohort consisted of 7 patients (6 active, 1 placebo). The mean glucose values at baseline of the cohorts (without placebo) were 15.6, 12.2, 12.1, 11.2, 9.6 and 15.3 mmol/L, respectively.
# The efficacy parameters were based on the group mean and individual mean glucose values. Glucose was measured 6 times per day (fasting, 2-hour post-breakfast, pre-lunch, 2-hour post-lunch, pre-dinner and bedtime) during the first week and 3 times per day (fasting, 2-hour post-breakfast and bedtime) for the remaining 5 weeks of the study. In addition, a placebo group was constructed for data analysis by pooling the patients (one per cohort) that received placebo during the study. […] At the third cohort (1250 micrograms), the mean glucose reduction from baseline for the first week was 19% (ranging from 15% to 24% with a mean reduction on day 7 of 20%), giving an average glucose value for the week of 9.8 mmol/L. This glucose reduction was significant against baseline (p=0.0007) and against placebo (p=0.0045). […] The glucose reductions of the subsequent cohorts were of similar magnitude and duration and confirmed this response. At the 2500 microgram cohort, the average glucose value for the first week was reduced to 9.5 mmol/L; the value for the 5000 microgram cohort for the first week was reduced to 8.4 mmol/L. (The American Diabetes Association (ADA) has a recommended target of HbA1C<7%; a mean daily glucose level of 9.5 mmol/L corresponds to an HbA1C level of 7%).
# Sprague Dawley rats = assay: Rat toxicity study (7-day and 28-day); type: in vivo
# Method: Immediately following injection, rats were housed individually, and food consumption and changes in body weights were monitored. […] However, by day 4, food consumption was similar to that observed in rats receiving vehicle only (FIG. 4). […] (FIG. 5).
# Recombinant human albumin (rHA) was also dosed at 23 mg/kg as an additional control.
# subjects = conditions: subcutaneous injection, 1.5 nmol/kg body weight and higher; cited from earlier work
# [7] = 1250 μg (17.6 nmoles) single SC
# [8] = 2500 μg (35.2 nmoles) single SC
# [9] = 3750 μg (52.8 nmoles) single SC
# [10] = 5000 μg (70.4 nmoles) single SC
# [11] = first four cohorts (310, 620, 1250 and 2500 μg)
molecule,measurement,setting,value
exendin-4(1-39) [reference compound],cumulative food intake relative to 0.9% NaCl group,[1],Reduction in cumulative food intake
same,cumulative weight gain compared to 0.9% NaCl,[1],not significant
same,day on which decrease in cumulative food intake reached statistical significance,[1],16 days
same,conditioned taste aversion (saccharin preference ratio compared to vehicle control),male Sprague-Dawley rats [2],decreased significantly the preference saccharine ratio
same,"kaolin intake relative to 0.9% NaCl, first 2 h",male Sprague-Dawley rats [3],Minimal kaolin intake
same,abnormal clinical signs,[4],No abnormal clinical signs
exendin-4(1-39) Lys^40 (ε-AEEA-MPA)-NH2 conjugated with albumin [CJC-1134-PC],day from which reduction of cumulative weight gain was statistically significant,"[1]; 100 nmol/kg, p≦0.05",11 days
same,day from which reduction of cumulative weight gain was statistically significant,"[1]; 200 nmol/kg, p≦0.01",4 days
same,cumulative food intake relative to 0.9% NaCl group,[1],Reduction in cumulative food intake
same,cumulative weight gain compared to 0.9% NaCl,[1],significantly reduced
same,day on which decrease in cumulative food intake reached statistical significance,[1],9 days
same,"clinical chemistry, hematology, urinalysis, organ weights, macroscopic evaluations",monkeys; monkey 7-day study,"no effects on clinical chemistry, hematology, urinalysis, or organ weights, or on macroscopic evaluations"
same,mortality or serious signs of toxicity,"monkeys; monkey 7-day study, 0.4, 2 and 10 mg/kg/day SC",no mortality or serious signs of toxicity were observed
same,food consumption (number of biscuits per day),"monkeys; monkey 7-day study, days 1-3, all groups including vehicle control, comparable by days 4-7",Initial decreases in food consumption
same,body weight,"monkeys; monkey 7-day study, moderately attenuated by day 7",dose-dependent decrease in body weight by day 3
same,body weight,monkeys; monkey 28-day study,dose dependent decrease in body weight was observed throughout the 28-day period
same,clinical signs,monkeys; monkey 28-day study,"transient decrease in activity, hunched posture, and decreased fecal output"
same,macroscopic evaluations,monkeys; monkey 28-day study,no effects on macroscopic evaluations
same,food consumption,"monkeys; monkey 28-day study, 10 mg/kg, comparable across groups by day 7",significantly reduced at 10/mg/kg on days 2 and 3
same,tolerability,"monkeys; monkeys, up to 10 mg/kg",generally well tolerated
same,kaolin intake after dosing relative to 0.9% NaCl,male Sprague-Dawley rats [5],kaolin intake was only moderately increased after 6 h
same,"kaolin intake relative to 0.9% NaCl, first 2 h",male Sprague-Dawley rats [5]; first 2 h post dose,Minimal kaolin intake
same,taste aversion response compared to unconjugated exendin-4,male Sprague-Dawley rats [2],significantly lower taste aversion response
same,Nausea (%),[6]; 310 μg (4.4 nmoles) single SC,0%
same,Vomiting (%),[6]; 310 μg (4.4 nmoles) single SC,0%
same,Nausea (%),[6]; 620 μg (8.7 nmoles) single SC,0%
same,Vomiting (%),[6]; 620 μg (8.7 nmoles) single SC,0%
same,Nausea (%),[6]; [7],0%
same,Vomiting (%),[6]; [7],0%
same,Nausea (%),[6]; [8],0%
same,Vomiting (%),[6]; [8],0%
same,Nausea (%),[6]; [9],17%
same,Vomiting (%),[6]; [9],17%
same,Nausea (%),[6]; [10],50%
same,Vomiting (%),[6]; [10],17%
same,average glucose value for the first week,[6]; 1250 micrograms,9.8 mmol/L
same,duration of glucose lowering effect,[6]; 1250 micrograms,more than 2 weeks
same,mean glucose reduction from baseline on day 7,[6]; 1250 micrograms,20%
same,mean glucose reduction from baseline for the first week,"[6]; 1250 micrograms, p=0.0007 vs baseline, p=0.0045 vs placebo",19%
same,average glucose value for the first week,[6]; 2500 microgram cohort,9.5 mmol/L
same,average glucose value for the first week,[6]; 5000 microgram cohort,8.4 mmol/L
same,"symptoms (headache, dizziness, light-headedness without documented hypoglycaemia)",[6]; 5000 microgram cohort,symptoms linked to an over stimulation of the GLP-1 receptors were observed
same,injection site reactions,[6]; [11],no injection site reactions
same,safety and tolerability,[6]; [11],no safety or tolerability issues
same,efficacy on glucose,[6]; first two cohorts (310 and 620 micrograms),Limited or no efficacy
same,average weight loss at day 7,[6]; first two non-active cohorts,0.4 kg
same,gastric stasis,"[6]; in each of the 3750 and 5000 μg cohorts, post-lunch on day one",one mild and transient case of short-term gastric stasis
same,dose linearity of plasma concentrations,"[6]; single SC dose, 310-5000 μg",dose linear
same,average weight loss at day 7,[6]; three following cohorts where activity was observed on glucose,0.9 kg
same,"clinical chemistry, hematology, urinalysis, organ weights, macroscopic evaluations",Sprague Dawley rats; rat 7-day study,"no effects on clinical chemistry, hematology, urinalysis, or organ weights, or on macroscopic evaluations"
same,mortality or serious signs of toxicity,"Sprague Dawley rats; rat 7-day study, 1, 5 or 25 mg/kg/day SC",no mortality or serious signs of toxicity were observed
same,food consumption,"Sprague Dawley rats; rat 7-day study, 5 and 25 mg/kg/day SC, similar to vehicle by day 4",dose dependent decrease in food consumption was observed at days 1-3
same,macroscopic evaluations,Sprague Dawley rats; rat 28-day study,no effects on macroscopic evaluations
same,food consumption,"Sprague Dawley rats; rat 28-day study, 25 mg/kg, comparable across groups by day 8",decrease in food consumption was observed at 25 mg/kg from days 1-7
same,body weight,"Sprague Dawley rats; rat 28-day study, 25 mg/kg, weight gain comparable days 4-28",Decreases in body weight were also observed at the 25 mg/kg/doses at days 1-4
same,activity and fecal output,"Sprague Dawley rats; rat 28-day study, following injections",transient decrease in activity and fecal output
same,tolerability,"Sprague Dawley rats; rats, up to 25 mg/kg",generally well tolerated
same,blood glucose levels compared to 100 nmol/kg unconjugated exendin-4,"[4]; 100 nmol/kg single SC, 24 h post dose",significantly lower
same,blood glucose levels compared to unconjugated exendin-4,"[4]; 100 nmol/kg single SC, out to 48 h post dose",remained lower
same,food and water consumption compared to unconjugated exendin-4,[4]; 24-47 h post dose,remained lower
same,food and water consumption compared to unconjugated exendin-4,[4]; after 24 hours,significantly reduced
same,blood glucose levels compared to unconjugated exendin-4,[4]; after 72 h,comparable
same,food consumption relative to exendin-4 treated mice,"[4]; after 74 h, maintained out to 101 h post dose",only moderately lower
same,abnormal clinical signs,[4],No abnormal clinical signs
same,water consumption relative to exendin-4 treated mice,[4]; out to 101 h post dose,moderately lower
GLP-1: proglucagon-derived peptide secreted from intestinal L-cells; incretin,nausea and vomiting,subjects,"lead to nausea and, less often, vomiting in a significant proportion of subjects"
"[Cl-].[Li+] [LiCl, Lithium chloride, reference compound]",kaolin intake after dosing relative to 0.9% NaCl,male Sprague-Dawley rats [5],significant kaolin intake after 1 h

# From patent US8039432B2, “Method of treatment of diabetes and/or obesity with reduced nausea side effect” (Conjuchem, LLC, priority 2005, dated 2011)
